Experimental data from paper PMC9188544, “Mechanism of glycogen synthase inactivation and interaction with glycogenin” (Nature Communications, 2022).
Positions count from the first letter of the chain named. In names and notes the source's numbering stands.

Key:
[1] = target: T1, human glycogenin 1 (GN1), full length, wild type, glucosylated (human), P46976; assay: negative-stain electron microscopy; purified co-expressed complex at 0.01-0.02 mg/mL in 25 mM HEPES pH 7.5, 150 mM NaCl, 1 mM TCEP, 10% glycerol; uranyl acetate stain; 2D classes and 3D map (C1, ~22 Å); details: remark: other sources report otherwise
T1 chain: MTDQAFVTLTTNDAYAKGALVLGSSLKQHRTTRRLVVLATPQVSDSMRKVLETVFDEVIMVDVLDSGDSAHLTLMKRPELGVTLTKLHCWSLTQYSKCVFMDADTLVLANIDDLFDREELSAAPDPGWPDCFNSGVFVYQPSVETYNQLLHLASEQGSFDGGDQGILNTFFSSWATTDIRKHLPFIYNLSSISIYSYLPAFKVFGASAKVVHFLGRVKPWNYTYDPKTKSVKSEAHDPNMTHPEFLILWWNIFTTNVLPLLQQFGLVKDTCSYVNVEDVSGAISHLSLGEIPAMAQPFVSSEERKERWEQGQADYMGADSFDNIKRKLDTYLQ

[2] = target: T2, human glycogenin 1 (GN1) Y195F, full length, non-glucosylated (human, UniProt P46976-2 1-333, Y195F); assay: mass photometry; purified co-expressed complex diluted to 50 nM in 25 mM HEPES pH 7.5, 150 mM NaCl, 1 mM TCEP; Refyn OneMP, 60 s movies; details: both partners purified
T2 construct: glycogenin 1, human, encoded by GYG1, cDNA NM 001184720, full length; expected ~37.5 kDa; the C-terminal GN34 region is modelled as residues 300-332, which fits the 333-residue isoform; Cloned in pFL (with untagged GS) and in pFastBac (co-infected with His6-TEV-GS WT or mutants); Both carry an N-terminal His6 tag and a cleavable site, so they are treated as one molecule; also called GN(Y195F); GN …
T2 sequence (looked up): T1 chain with Y195F

[3] = target: T3, human glycogenin 1 (GN1), full length, wild type, glucosylated (human, UniProt P46976-2 1-333, auto-glucosylated at tyrosine 195 (heterogeneous glucose chains; smear on SDS-PAGE, PAS positive)); assay: negative-stain electron microscopy; purified co-expressed complex at 0.01-0.02 mg/mL in 25 mM HEPES pH 7.5, 150 mM NaCl, 1 mM TCEP, 10% glycerol; uranyl acetate stain; 2D classes and 3D map (C1, ~22 Å); details: both partners purified
T3 construct: glycogenin 1, human, encoded by GYG1, cDNA NM 001184720, full length; expected ~37.5 kDa; the C-terminal GN34 region is modelled as residues 300-332, which fits the 333-residue isoform; The isoform is inferred from the printed transcript id, the ~37.5 kDa size and the GN34 numbering; also called GN WT; HsGN; not shown: His6, N-terminal, cleaved
T3 sequence (looked up): T1 chain

[4] = target: the molecule itself; assay: cryo-EM structure; purified GS-GN (WT) complex at 0.36 mg/mL (2.97 μM), 8% glycerol; map at 6.0 Å
[5] = target: the molecule itself; assay: mass photometry; purified co-expressed complex diluted to 50 nM in 25 mM HEPES pH 7.5, 150 mM NaCl, 1 mM TCEP; Refyn OneMP, 60 s movies

B1: human glycogenin 1 (GN1), full length, wild type, glucosylated, P46976-2 1-333 (enzyme)
chain: T1 chain
modifications: here or on the partner: auto-glucosylated at tyrosine 195 (heterogeneous glucose chains; smear on SDS-PAGE, PAS positive); auto-glucosylated at tyrosine 195 (heterogeneous glucose chains; smear on SDS-PAGE, PAS positive)
- stoichiometry N [1]: 2

B2: human glycogen synthase 1 (GS1), full length, phosphorylated, co-expressed with GN1 from the pFL vector (enzyme, UniProt P13807 1-737, looked up)
chain: MPLNRTLSMSSLPGLEDWEDEFDLENAVLFEVAWEVANKVGGIYTVLQTKAKVTGDEWGDNYFLVGPYTEQGVRTQVELLEAPTPALKRTLDSMNSKGCKVYFGRWLIEGGPLVVLLDVGASAWALERWKGELWDTCNIGVPWYDREANDAVLFGFLTTWFLGEFLAQSEEKPHVVAHFHEWLAGVGLCLCRARRLPVATIFTTHATLLGRYLCAGAVDFYNNLENFNVDKEAGERQIYHRYCMERAAAHCAHVFTTVSQITAIEAQHLLKRKPDIVTPNGLNVKKFSAMHEFQNLHAQSKARIQEFVRGHFYGHLDFNLDKTLYFFIAGRYEFSNKGADVFLEALARLNYLLRVNGSEQTVVAFFIMPARTNNFNVETLKGQAVRKQLWDTANTVKEKFGRKLYESLLVGSLPDMNKMLDKEDFTMMKRAIFATQRQSFPPVCTHNMLDDSSDPILTTIRRIGLFNSSADRVKVIFHPEFLSSTSPLLPVDYEEFVRGCHLGVFPSYYEPWGYTPAECTVMGIPSISTNLSGFGCFMEEHIADPSAYGIYILDRRFRSLDDSCSQLTSFLYSFCQQSRRQRIIQRNRTERLSDLLDWKYLGRYYMSARHMALSKAFPEHFTYEPNEADAAQGYRYPRPASVPPSPSLSRHSSPHQSEDEEDPRNGPLEEDGERYDEDEEAAKDRRNIRAPEWPRRASCTSSTSGSKRNSVDTATSSSLSTPSEPLSPTSSLGEERN
modifications: phosphoserine mapped by MS/MS at S8, S412, S641, S645, S652, S653, S657, S727, S731; phospho-S641 modelled in the cryo-EM map
notes: glycogen synthase 1 (muscle), human, encoded by GYS1, cDNA NM 002103, full length; In the pFL construct only GN carries the His tag; also called HsGS; GS WT
- stoichiometry N [2]: 1 GS per GN (4:4)
- stoichiometry N [3]: 1 GS per GN (4:4)
- stoichiometry N [4]: 4

B3: human glycogen synthase 1 (GS1) H610E (enzyme, UniProt P13807 1-737, looked up)
chain: B2 chain with H610E
modifications: phosphorylation at S8, S641 and S641/S645 probed by immunoblot (Fig. 4b)
notes: glycogen synthase 1 (muscle), human, encoded by GYS1, cDNA NM 002103; also called GS H610E; not shown: His6, N-terminal, cleaved
- binding result [5]: binds

B4: human glycogen synthase 1 (GS1) R603A (enzyme, UniProt P13807 1-737, looked up)
chain: B2 chain with R603A
modifications: phosphorylation at S8, S641 and S641/S645 probed by immunoblot (Fig. 4b)
notes: glycogen synthase 1 (muscle), human, encoded by GYS1, cDNA NM 002103; also called GS R603A; not shown: His6, N-terminal, cleaved
- binding result [5]: binds

B5: human glycogen synthase 1 (GS1) W18A (enzyme, UniProt P13807 1-737, looked up)
chain: B2 chain with W18A
modifications: phosphorylation at S8, S641 and S641/S645 probed by immunoblot (Fig. 4b)
notes: glycogen synthase 1 (muscle), human, encoded by GYS1, cDNA NM 002103; also called GS W18A; not shown: His6, N-terminal, cleaved
- binding result [5]: binds

B6: human glycogen synthase 1 (GS1) Y600A (enzyme, UniProt P13807 1-737, looked up)
chain: B2 chain with Y600A
modifications: phosphorylation at S8, S641 and S641/S645 probed by immunoblot (Fig. 4b)
notes: glycogen synthase 1 (muscle), human, encoded by GYS1, cDNA NM 002103; also called GS Y600A; not shown: His6, N-terminal, cleaved
- binding result [5]: binds
